Reference: paper PMC11023060

Target: T1, CbAgoM (delA2;D463R;Y473A;K477C;T491H;T494S;K520G;A542D;A612D;del738-749)
T1 chain: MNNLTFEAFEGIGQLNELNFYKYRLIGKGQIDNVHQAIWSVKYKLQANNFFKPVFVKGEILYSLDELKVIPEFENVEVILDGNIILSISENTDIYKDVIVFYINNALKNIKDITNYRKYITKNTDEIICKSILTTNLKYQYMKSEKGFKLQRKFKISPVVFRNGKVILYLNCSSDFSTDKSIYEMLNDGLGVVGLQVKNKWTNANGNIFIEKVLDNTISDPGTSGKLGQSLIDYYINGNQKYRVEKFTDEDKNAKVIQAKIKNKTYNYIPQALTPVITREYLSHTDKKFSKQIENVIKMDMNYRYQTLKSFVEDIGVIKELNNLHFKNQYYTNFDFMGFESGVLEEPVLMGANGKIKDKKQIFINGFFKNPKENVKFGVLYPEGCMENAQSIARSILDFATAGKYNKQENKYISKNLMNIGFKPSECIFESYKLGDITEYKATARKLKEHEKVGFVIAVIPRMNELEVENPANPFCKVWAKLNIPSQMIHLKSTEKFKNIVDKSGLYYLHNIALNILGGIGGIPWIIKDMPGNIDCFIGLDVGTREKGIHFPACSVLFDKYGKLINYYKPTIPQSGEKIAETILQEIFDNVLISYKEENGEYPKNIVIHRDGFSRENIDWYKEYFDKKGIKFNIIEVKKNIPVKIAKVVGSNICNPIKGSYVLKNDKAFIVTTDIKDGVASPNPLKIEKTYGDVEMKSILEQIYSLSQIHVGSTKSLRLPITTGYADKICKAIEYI
Assay: fluorescence polarization

TGAGGTAGTAGGTTGTATAGT (ssDNA, 5'-phosphate) [gDNA 21 nt]: binds.
